Data as given in patent publication US20050064411.

Assays:
[1] = biological target: T1, FLAG-AICD, P05067
T1 chain: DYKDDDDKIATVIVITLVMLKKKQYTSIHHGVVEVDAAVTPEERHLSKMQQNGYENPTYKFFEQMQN

[2] = biological target: SOD1 mutants

B1: NEDL-1 protein (protein)
chain: MASPSRNSQSRRRCKEPLRYSYNPDQFHNMDLRGGPHDGVTIPRSTSDTDLVTSDSRSTLMVSSSYYSIGHSQDLVIHWDIKEEVDAGDWIGMYLIDEVLSENFLDYKNRGVNGSHRGQIIWKIDASSYFVEPETKICFKYYHGVSGALRATTPSVTVKNSAAPIFKSIGADETVQGQGSRRLISFSLSDFQAMGLKKGMFFNPDPYLKISIQPGKHSIFPALPHHGQERRSKIIGNTVNPIWQAEQFSFVSLPTDVLEIEVKDKFAKSRPIIKRFLGKLSMPVQRLLERHAIGDRVVSYTLGRRLPTDHVSGQLQFRFEITSSIHPDDEEISLSTEPESAQIQDSPMNNLMESGSGEPRSEAPESSESWKPEQLGEGSVPDRPGNQSIELSRPAEEAAVITEAGDQGMVSVGPEGAGELLAQVQKDIQPAPSAEELAEQLDLGEEASALLLEDGEAPASTKEEPLEEEATTQSRAGREEEEKEQEEEGDVSTLEQGEGRLQLRASVKRKSRPCSLPVSELETVIASACGDPETPRTHYIRIHTLLHSMPSAQGGSAAEEEDGAEEESTLKDSSEKDGLSEVDTVAADPSALEEDREEPEGATPGTAHPGHSGGHFPSLANGAAQDGDTHPSTGSESDSSPRQGGDHSCEGCDASCCSPSCYSSSCYSTSCYSSSCYSASCYSPSCYNGNRFASHTRFSSVDSAKISESTVFSSQDDEEEENSAFESVPDSMQSPELDPESTNGAGPWQDELAAPSGHVERSPEGLESPVAGPSNRREGECPILHNSQPVSQLPSLRPEHHHYPTIDEPLPPNWEARIDSHGRVFYVDHVNRTTTWQRPTAAATPDGMRRSGSIQQMEQLNRRYQNIQRTIATERSEEDSGSQSCEQAPAGGGGGGGSDSEAESSQSSLDLRREGSLSPVNSQKITLLLQSPAVKFITNPEFFTVLHANYSAYRVFTSSTCLKHMILKVRRDARNFERYQHNRDLVNFINMFADTRLELPRGWEIKTDQQGKSFFVDHNSRATTFIDPRIPLQNGRLPNHLTHRQHLQRLRSYSAGEASEVSRNRGASLLARPGHSLVAAIRSQHQHESLPLAYNDKIVAFLRQPNIFEMLQERQPSLARNHTLREKIHYIRTEGNHGLEKLSCDADLVILLSLFEEEIMSYVPLQAAFHPGYSFSPRCSPCSSPQNSPGLQRASARAPSPYRRDFEAKLRNFYRKLEAKGFGQGPGKIKLIIRRDHLLEGTFNQVMAYSRKELQRNKLYVTFVGEEGLDYSGPSREFFFLLSQELFNPYYGLFEYSANDTYTVQISPMSAFVENHLEWFRFSGRILGLALIHQYLLDAFFTRPFYKALLRLPCDLSDLEYLDEEFHQSLQWMKDNNITDILDLTFTVNEEVFGQVTERELKSGGANTQVTEKNKKEYIERMVKWRVERGVVQQTEALVRGFYEVVDSRLVSVFDARELELVIAGTAEIDLNDWRNNTEYRGGYHDGHLVIRWFWAAVERFNNEQRLRLLQFVTGTSSVPYEGFAALRGSNGLRRFCIEKWGKITSLPRAHTCFNRLDLPPYPSYSMLYEKLLTAVEETSTFGLE
In the case of B1, the “ubiquitination (bands increasing by about 9 kD detected with anti-ubiquitin antibody)” value [1] is reported as “It is understood that ACID alone is subjected to ubiquitination by NEDL-1” and the “ubiquitination (immunoprecipitation with FLAG, blotting with anti-ubiquitin antibody, FIG. 13)” value [2] is reported as “the degree of ubiquitination drastically increases in the presence of NEDL-1”.
